According to patent US12459987B2, “Monoclonal antibodies for prevention and treatment of herpes simplex viral infections” (priority 2019, dated 2025):
Positions count from the first letter of the chain named.

B1: HSV010-9: gB-1 specific mouse monoclonal IgG; IgH SEQ ID NO: 48, IgL SEQ ID NO: 50 (antibody, V domains shown)
VH: QVQLQQPGAELVKPGASVKLSCKSSGYTFTSYWMHWVKQRPGQGLEWIGMIHPNSGITHYNEKFKTKATLTVDKSSSTAYMQLSSLTSEDSAVSYCARGSNSGSAWFAYWGQGTLVTVSAA
VL: DIQMTQSSSYLSVSLGGRVTITCKASDHINNWLAWYQQKPGNAPRLLISGATSLETGVPSRFSGSGSGKDYTLSITSLQTEDVATYYCQQYWSTPLTFGAGTKLELKR
modifications: HSV010-9 heavy chain; HSV010-9 light chain
B2: HSV010-13: gB-1 specific mouse monoclonal IgG; IgH SEQ ID NO: 52, IgL SEQ ID NO: 54 (antibody, V domains shown)
VH: B1 VH with S24A, M34I, R40G, S94C, N101S
VL: B1 VL with V13E, T94S
modifications: HSV010-13 heavy chain; HSV010-13 light chain
B3: HSV010-14: gB-1 specific mouse monoclonal IgG; IgH SEQ ID NO: 56, IgL SEQ ID NO: 58 (antibody, V domains shown)
VH: B1 VH with S24A, M34I, T58A, N61S, T66S, K67T, A92S, S94Y, N101S
VL: B1 VL with S26G
modifications: HSV010-14 heavy chain; HSV010-14 light chain
B4: HSV010-28: gB-1 specific mouse monoclonal IgG; IgH SEQ ID NO: 60, IgL SEQ ID NO: 62 (antibody, V domains shown)
VH: QIQLVQSGPELKKPGETVKISCKASGYTFTTYGMSWVKQAPGKGLKWMGWINTYSGVSTYADDFKGRFAFSLETSASTAYLQINNLKNEDTATYFCAQVNYAMDYWGQGTSVTVSSA
VL: DIVMTQSHKFLSTSVGDWVTITCKASQDVSTAVAWFQQKPGQSPKVLIYSASYRYTGVPDRFTGSGSGTDFTFTISSVQAEDLAVYYCQQHYSTPRTFGGGTKLEIKR
modifications: HSV010-28 heavy chain; HSV010-28 light chain

test system: HSV-2 G infected cell lysates; test: ELISA binding of recombinant antibodies to HSV-2 G infected cell lysates; design: species or system HSV-2 G strain; settings: Table 3 summary
Method: Binding of recombinant antibodies to HSV-2 G lysates was tested by ELISA. Both heavy and light chain V(D)J rearrangements were amplified from selected single B-cell culture wells (22D10, 32H6, 33B8, and 35H7) by standard RT-PCR. These cloned V(D)J rearrangements were introduced into expression vectors. Recombinant antibodies were obtained by co-transfection of these expression vectors into Expi293F cells. ≥4 mg of purified IgGs was obtained (not shown). […]
Briefly, mice were vaccinated with ΔgD-2 and then 16 days after vaccination, the draining, inguinal lymph nodes were harvested. GC B cells were isolated from these tissues and were cultured in Nojima cultures. Although overall cloning efficiency of GC B cells from these (shipped) tissues was lower than those from freshly isolated tissues (6% vs. 20%), 50 GC clones were obtained that were specific to HSV-2 G strain (HSV-2 G or HSV2-G) lysate. GC B cells from inguinal lymph nodes of mice vaccinated with ΔgD-2 were sorted directly into 96-well plates (1 cell/well). These GC B cells were then cultured in the presence of NB-21.2D9 feeder cells. After culture, presence of IgG was first determined by ELISA, and then the reactivity of culture supernatant IgG against HSV-2 G lysates (HSV-2 G) and uninfected Vero lysates were tested by ELISA.
Based on the obtained V(D)J sequences from each B-cell culture, paired heavy and light chains were re-expressed (as recombinant mouse IgG1 and IgG2c antibodies) in Expi293F cells (Kuraoka et al. Immunity 2016; DiLillo et al. Nature Medicine 2013). […] As expected, all recombinant antibodies reacted specifically with HSV-2 G lysates (FIG. 3). […] Binding of recombinant antibodies to HSV-2 G lysates was tested by ELISA. Both heavy and light chain V(D)J rearrangements were amplified from selected single B-cell culture wells (22D10, 32H6, 33B8, and 35H7) by standard RT-PCR. These cloned V(D)J rearrangements were introduced into expression vectors. Recombinant antibodies were obtained by co-transfection of these expression vectors into Expi293F cells. ≥4 mg of purified IgGs was obtained (not shown). […] These recombinant antibodies (≥4 mg each) were tested for identification of reacting antigen(s), in an in vitro FcγRIV activation assay (Promega FcγRIV ADCC Reporter Bioassay)(FIG. 4), and in vivo protection assay. […]

Row | Molecule | Binding to HSV-lysate
1 | B1 | Yes
2 | B2 | Yes
3 | B3 | Yes
4 | B4 | Yes

target: glycoprotein B of HSV-1 (gB-1) (Human herpesvirus 1, UniProt P10211); test: Luminex multiplex assay, binding to gB-1; settings: Table 3 summary
Method: FIGS. 9A and 9B are graphs of median fluorescence intensity (MFI) versus IgG concentration (ng/ml), showing the binding of various recombinant antibodies to gB-1 as measured by Luminex multiplex assay.
BMPC-23 binds HSV-1 gB (gB-1). The gB-1 binding of the antibodies was determined by Luminex multiplex assay. Mixtures of antigen (gB-1)-conjugated microspheres (1,000 counts each) were added to each well of 96-well filter plates (Millipore). After washing with PBS containing 1% BSA, 0.05% Tween 20 and 0.05% NaN3, serially diluted recombinant antibodies (5E7, 19G7, 18G4, 22E10, 3A2, 17G3, 22D10, 32H6, 33B8, 25H7, BMPC-23, and S5V2-29) were added to the plates and incubated for 2 hours at room temperature, with mild agitation of the plates. Samples were diluted in PBS containing 1% cow milk, 1% BSA, 0.05% Tween 20 and 0.05% NaN3. After washing, PE goat anti-mouse IgG was added to the plates and incubated for 1 hour at room temperature with mild agitation. After washing, microspheres were resuspended in PBS containing 1% BSA, 0.05% Tween 20 and 0.05% NaN3 and fluorescent signals from each microsphere were measured in a Bio-Plex® 3D machine.
Finding gB-1 specific HSV antibodies. After Nojima culture (single B-cell culture), HSV-specific antibodies were cloned from germinal center B cells and tested for binding to HSV-1 gB-1 by Luminex multiplex assay as described above. FIGS. 9A and 9B show the gB-1 binding results for 10 antibodies in comparison with BMPC-23. With the exception of BMPC-23, the antibodies in Table 3 were derived from germinal center B cells (lymph nodes) taken 15-17 days after primary vaccination with ΔgD-2. BMPC-23 was derived from bone marrow plasmacytes taken 2 weeks post-boost with ΔgD-2. Nucleotide sequences and amino acid sequences for the heavy-chains and light chains are shown in Table 4, as are the amino acid sequences for the light chain and heavy chain CDR1, CDR2, and CDR3.

Row | Molecule | Target antigens
5 | B1 | gB
6 | B2 | gB
7 | B3 | gB
8 | B4 | gB

target: gB-1 (Human herpesvirus 1, UniProt P10211); test: Luminex competition: inhibition of binding of BMPC-23 human IgG to gB-1; design: species or system HSV-1; settings: Table 3 summary
Method: FIGS. 10A-10G show the capacity of gB-1 specific mouse monoclonal IgG antibodies to inhibit binding of BMPC-23 human IgG antibodies to gB-1.
Finding BMPC-like antibodies. Nine out of 10 gB-1 specific mouse monoclonal IgG antibodies in FIG. 3 were tested for their capacity to inhibit binding of BMPC-23 human IgG antibodies to gB-1. Serially diluted, gB-1 specific mouse monoclonal antibodies or irrelevant, control mouse antibody (H33Lγ1) were incubated with gB-1 conjugated Luminex beads. After incubation, fixed concentration (2 ng/ml) of BMPC-23 human IgG antibodies were added to each well. After washing, mouse anti-human lgG-PE was added to detect binding of human BMPC-23 antibodies. […] Strong inhibition by HSV010-4 (>95% at 222 ng/ml), HSV010-7 (>90% at 222 ng/ml), and HSV010-34 (>80% at 222 ng/ml), shown in FIGS. 10B, 10F, and 10G, respectively, indicates these antibodies bind epitopes on gB-1 closely overlapping with the one recognized by BMPC-23. Therefore, similar protective efficacy as BMPC-23 is expected from these antibodies (experiments in progress). […] Protective efficacy of these antibodies need to be tested (experiments in progress).

Row | Molecule | Competition with BMPC-23
9 | B1 | Weak
10 | B2 | Weak
11 | B3 | Weak
12 | B4 | Weak
